What was measured:
Assay in all cases: flow cytometry, mutant on cells, IgG
human CD33 F21V = human CD33 F21V (human, UniProt P20138 18-364)
Experimental: (§1) An alanine scan on human CD33 was performed to the determine the residues on CD33 that are involved in binding to the antibodies investigated. […] Briefly, a mutation library of CD33 was created by high-throughput, site-directed mutagenesis. Each residue was individually mutated to alanine, with alanine codons mutated to serine. The mutant library was arrayed in 384-well microplates and transiently transfected into HEK293-T. Following transfection, cells were incubated with the indicated antibodies (IgG or Fab) at concentrations pre-determined using an independent immunofluorescence titration curve on wild type CD33. […] Binding of each antibody to each mutant clone was determined in duplicates. For each point, background fluorescence was subtracted from the raw data, which were then normalized to antibody reactivity with wild type CD33.
(§2) Antibodies were screened for binding to the human CD33 variants in IgG format. […] For each mutation, background fluorescence was subtracted from the raw data, which were then normalized to antibody reactivity with wild-type CD33.

human CD33 Q24E = human CD33 Q24E (human, UniProt P20138 18-364)
Experimental: as §1, §2

human CD33 P19L = human CD33 P19L (human, UniProt P20138 18-364)
Experimental: as §1, §2

human CD33 Q24H = human CD33 Q24H (human, UniProt P20138 18-364)
Experimental: as §1, §2

human CD33 W22Y = human CD33 W22Y (human, UniProt P20138 18-364)
Experimental: as §1, §2

human CD33 P46H = human CD33 P46H (human, UniProt P20138 18-364)
Experimental: as §1, §2

human CD33 Q24V = human CD33 Q24V (human, UniProt P20138 18-364)
Experimental: as §1, §2

human CD33 V25S = human CD33 V25S (human, UniProt P20138 18-364)
Experimental: as §1, §2

human CD33 P19W = human CD33 P19W (human, UniProt P20138 18-364)
Experimental: as §1, §2

human CD33 N20G = human CD33 N20G (human, UniProt P20138 18-364)
Experimental: as §1, §2

human CD33 V25L = human CD33 V25L (human, UniProt P20138 18-364)
Experimental: as §1, §2

human CD33 I47G = human CD33 I47G (human, UniProt P20138 18-364)
Experimental: as §1, §2

human CD33 V25I = human CD33 V25I (human, UniProt P20138 18-364)
Experimental: as §1, §2

human CD33 Q24R = human CD33 Q24R (human, UniProt P20138 18-364)
Experimental: as §1, §2

human CD33 T42N = human CD33 T42N (human, UniProt P20138 18-364)
Experimental: as §1, §2

human CD33 F21L = human CD33 F21L (human, UniProt P20138 18-364)
Experimental: as §1, §2

human CD33 N20P = human CD33 N20P (human, UniProt P20138 18-364)
Experimental: as §1, §2

human CD33 N20Q = human CD33 N20Q (human, UniProt P20138 18-364)
Experimental: as §1, §2

human CD33 F44P = human CD33 F44P (human, UniProt P20138 18-364)
Experimental: as §1, §2

human CD33 F44S = human CD33 F44S (human, UniProt P20138 18-364)
Experimental: as §1, §2

human CD33 F44D = human CD33 F44D (human, UniProt P20138 18-364)
Experimental: as §1, §2

human CD33 P46L = human CD33 P46L (human, UniProt P20138 18-364)
Experimental: as §1, §2

human CD33 P46F = human CD33 P46F (human, UniProt P20138 18-364)
Experimental: as §1, §2

human CD33 F44I = human CD33 F44I (human, UniProt P20138 18-364)
Experimental: as §1, §2

human CD33 F43L = human CD33 F43L (human, UniProt P20138 18-364)
Experimental: as §1, §2

human CD33 N20E = human CD33 N20E (human, UniProt P20138 18-364)
Experimental: as §1, §2

human CD33 F44H = human CD33 F44H (human, UniProt P20138 18-364)
Experimental: as §1, §2

human CD33 N20L = human CD33 N20L (human, UniProt P20138 18-364)
Experimental: as §1, §2

human CD33 F21I = human CD33 F21I (human, UniProt P20138 18-364)
Experimental: as §1, §2

human CD33 F44T = human CD33 F44T (human, UniProt P20138 18-364)
Experimental: as §1, §2

human CD33 I47V = human CD33 I47V (human, UniProt P20138 18-364)
Experimental: as §1, §2

human CD33 D18R = human CD33 D18R (human, UniProt P20138 19-364)
Experimental: as §1, §2

human CD33 P19K = human CD33 P19K (human, UniProt P20138 18-364)
Experimental: as §1, §2

human CD33 F21H = human CD33 F21H (human, UniProt P20138 18-364)
Experimental: as §1, §2

human CD33 Q24S = human CD33 Q24S (human, UniProt P20138 18-364)
Experimental: as §1, §2

human CD33 W22N = human CD33 W22N (human, UniProt P20138 18-364)
Experimental: as §1, §2

human CD33 F44L = human CD33 F44L (human, UniProt P20138 18-364)
Experimental: as §1, §2

Sequence of human CD33 F44I (P20138 18-364 F44I limits assumed): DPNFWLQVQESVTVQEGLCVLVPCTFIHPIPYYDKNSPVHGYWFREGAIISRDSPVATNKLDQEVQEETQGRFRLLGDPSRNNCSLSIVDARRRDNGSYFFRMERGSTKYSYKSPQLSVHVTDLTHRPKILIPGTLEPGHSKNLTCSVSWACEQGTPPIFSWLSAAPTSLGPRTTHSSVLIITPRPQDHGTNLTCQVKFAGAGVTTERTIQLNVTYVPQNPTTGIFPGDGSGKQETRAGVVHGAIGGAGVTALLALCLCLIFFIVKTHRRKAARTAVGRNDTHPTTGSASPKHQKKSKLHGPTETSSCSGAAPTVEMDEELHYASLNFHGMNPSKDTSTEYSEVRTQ
Sequence of human CD33 P46L (P20138 18-364 P46L limits assumed): as the sequence (P20138 18-364 F44I limits assumed) above, with I27F, P29L counted along it
Sequence of human CD33 N20Q (P20138 18-364 N20Q limits assumed): as the sequence (P20138 18-364 F44I limits assumed) above, with N3Q, I27F counted along it
Sequence of human CD33 V25S (P20138 18-364 V25S limits assumed): as the sequence (P20138 18-364 F44I limits assumed) above, with V8S, I27F counted along it
Sequence of human CD33 F44S (P20138 18-364 F44S limits assumed): as the sequence (P20138 18-364 F44I limits assumed) above, with I27S counted along it
Sequence of human CD33 N20E (P20138 18-364 N20E limits assumed): as the sequence (P20138 18-364 F44I limits assumed) above, with N3E, I27F counted along it
Sequence of human CD33 F44T (P20138 18-364 F44T limits assumed): as the sequence (P20138 18-364 F44I limits assumed) above, with I27T counted along it
Sequence of human CD33 F44H (P20138 18-364 F44H limits assumed): as the sequence (P20138 18-364 F44I limits assumed) above, with I27H counted along it
Sequence of human CD33 V25I (P20138 18-364 V25I limits assumed): as the sequence (P20138 18-364 F44I limits assumed) above, with V8I, I27F counted along it
Sequence of human CD33 W22N (P20138 18-364 W22N limits assumed): as the sequence (P20138 18-364 F44I limits assumed) above, with W5N, I27F counted along it
Sequence of human CD33 Q24E (P20138 18-364 Q24E limits assumed): as the sequence (P20138 18-364 F44I limits assumed) above, with Q7E, I27F counted along it
Sequence of human CD33 Q24H (P20138 18-364 Q24H limits assumed): as the sequence (P20138 18-364 F44I limits assumed) above, with Q7H, I27F counted along it
Sequence of human CD33 Q24S (P20138 18-364 Q24S limits assumed): as the sequence (P20138 18-364 F44I limits assumed) above, with Q7S, I27F counted along it
Sequence of human CD33 I47V (P20138 18-364 I47V limits assumed): as the sequence (P20138 18-364 F44I limits assumed) above, with I27F, I30V counted along it

| Binder | Mean % WT Binding (human CD33 F21V) | Mean % WT Binding (human CD33 Q24E) | Mean % WT Binding (human CD33 P19L) | Mean % WT Binding (human CD33 Q24H) | Mean % WT Binding (human CD33 W22Y) | Mean % WT Binding (human CD33 P46H) | Mean % WT Binding (human CD33 Q24V) | Mean % WT Binding (human CD33 V25S) | Mean % WT Binding (human CD33 P19W) | Mean % WT Binding (human CD33 N20G) | Mean % WT Binding (human CD33 V25L) | Mean % WT Binding (human CD33 I47G) | Mean % WT Binding (human CD33 V25I) | Mean % WT Binding (human CD33 Q24R) | Mean % WT Binding (human CD33 T42N) | Mean % WT Binding (human CD33 F21L) | Mean % WT Binding (human CD33 N20P) | Mean % WT Binding (human CD33 N20Q) | Mean % WT Binding (human CD33 F44P) | Mean % WT Binding (human CD33 F44S) | other results |
| --- | --- | --- | --- | --- | --- | --- | --- | --- | --- | --- | --- | --- | --- | --- | --- | --- | --- | --- | --- | --- | --- |
| Refmab #3 (antibody, human IgG1, V domains shown, Tested in IgG format; human IgG1 Fc silent (PG-LALA)) VH: QVQLVQSGAEVKKPGSSVKVSCKASGYTFTDYNMHWVRQAPGQGLEWIGYIYPYNGGTGYNQKFKSKATITADESTNTAYMELSSLRSEDTAVYYCARGRPAMDYWGQGTLVTVSS VL: DIQMTQSPSSLSASVGDRVTITCRASESVDNYGISFMNWFQQKPGKAPKLLIYAASNQGSGVPSRFSGSGSGTDFTLTISSLQPDDFATYYCQQSKEVPWTFGQGTKVEIK | 0.7 % WT binding | 0.8 % WT binding | 117 % WT binding | 7.1 % WT binding | 11.5 % WT binding | 0.5 % WT binding | 24.5 % WT binding | 104 % WT binding | 71.2 % WT binding | 3.6 % WT binding | 97.8 % WT binding | 107 % WT binding | 113 % WT binding | 74.6 % WT binding | 95.5 % WT binding | 1 % WT binding | 1.7 % WT binding | 3.4 % WT binding | 2 % WT binding | 11.4 % WT binding | Mean % WT Binding (human CD33 F44D): 1.2 % WT binding; Mean % WT Binding (human CD33 P46L): 0.7 % WT binding; Mean % WT Binding (human CD33 P46F): 0.2 % WT binding; Mean % WT Binding (human CD33 F44I): 101 % WT binding; Mean % WT Binding (human CD33 F43L): 111 % WT binding; Mean % WT Binding (human CD33 N20E): 0.5 % WT binding; Mean % WT Binding (human CD33 F44H): 91.2 % WT binding; Mean % WT Binding (human CD33 N20L): 9.4 % WT binding; Mean % WT Binding (human CD33 F21I): 0.5 % WT binding; Mean % WT Binding (human CD33 F44T): 83.3 % WT binding; Mean % WT Binding (human CD33 I47V): 100 % WT binding; Mean % WT Binding (human CD33 D18R): 5.3 % WT binding; Mean % WT Binding (human CD33 P19K): 1.8 % WT binding; Mean % WT Binding (human CD33 F21H): 1.4 % WT binding; Mean % WT Binding (human CD33 Q24S): 5.3 % WT binding; Mean % WT Binding (human CD33 W22N): 3.5 % WT binding; Mean % WT Binding (human CD33 F44L): 80 % WT binding |
| Refmab #1 (antibody, human IgG1, V domains shown, Tested in IgG format; human IgG1 (Absolute Antibody hP67.6, Cat. No. Ab00283-10.0); also called hP67.6) VH: EVQLVQSGAEVKKPGSSVKVSCKASGYTITDSNIHWVRQAPGQSLEWIGYIYPYNGGTDYNQKFKNRATLTVDNPTNTAYMELSSLRSEDTAFYYCVNGNPWLAYWGQGTLVTVSS VL: DIQLTQSPSTLSASVGDRVTITCRASESLDNYGIRFLTWFQQKPGKAPKLLMYAASNQGSGVPSRFSGSGSGTEFTLTISSLQPDDFATYYCQQTKEVPWSFGQGTKVEVK | 1.5 % WT binding | 17.1 % WT binding | 91.6 % WT binding | 95.3 % WT binding | 98 % WT binding | 0.7 % WT binding | 92.6 % WT binding | 106 % WT binding | 73.8 % WT binding | 5.1 % WT binding | 99.2 % WT binding | 105 % WT binding | 113 % WT binding | 95.1 % WT binding | 99.4 % WT binding | 4.7 % WT binding | 2.9 % WT binding | 2.8 % WT binding | 37.1 % WT binding | 79.8 % WT binding | Mean % WT Binding (human CD33 F44D): 98.9 % WT binding; Mean % WT Binding (human CD33 P46L): 28.9 % WT binding; Mean % WT Binding (human CD33 P46F): 1 % WT binding; Mean % WT Binding (human CD33 F44I): 100 % WT binding; Mean % WT Binding (human CD33 F43L): 111 % WT binding; Mean % WT Binding (human CD33 N20E): 0.3 % WT binding; Mean % WT Binding (human CD33 F44H): 97.6 % WT binding; Mean % WT Binding (human CD33 N20L): 78.5 % WT binding; Mean % WT Binding (human CD33 F21I): 1.9 % WT binding; Mean % WT Binding (human CD33 F44T): 107 % WT binding; Mean % WT Binding (human CD33 I47V): 112 % WT binding; Mean % WT Binding (human CD33 D18R): 60.6 % WT binding; Mean % WT Binding (human CD33 P19K): 5.5 % WT binding; Mean % WT Binding (human CD33 F21H): 20.6 % WT binding; Mean % WT Binding (human CD33 Q24S): 60.2 % WT binding; Mean % WT Binding (human CD33 W22N): 76.5 % WT binding; Mean % WT Binding (human CD33 F44L): 112 % WT binding |
| Refmab #2 (antibody, human IgG1, V domains shown, Tested in IgG format; human IgG1 Fc silent (PG-LALA)) VH: QVQLVQSGAEVKKPGSSVKVSCKASGGTFSDYAISWVRQAPGQGLEWMGRIIPILGVADYAQKFQGRVTITADKSTRTAYMELSSLRSEDTAVYYCARNWADAFDIWGQGTMVTVSS VL: DIQLTQSPSSLSASVGDRVTITCRASQGISSVLAWYQQKPGKAPKLLIYDASSLESGVPSRFSGSGSGTDFTLTISSLQPEDFATYYCQQFDSSITFGQGTKLEIK | 117 % WT binding | 63.7 % WT binding | 111 % WT binding | 101 % WT binding | 107 % WT binding | 95.1 % WT binding | 99.3 % WT binding | 110 % WT binding | 88.3 % WT binding | 105 % WT binding | 109 % WT binding | 3.7 % WT binding | 114 % WT binding | 96.8 % WT binding | 98.2 % WT binding | 120 % WT binding | 98.5 % WT binding | 125 % WT binding | 0.4 % WT binding | 0.8 % WT binding | Mean % WT Binding (human CD33 F44D): 2 % WT binding; Mean % WT Binding (human CD33 P46L): 93.8 % WT binding; Mean % WT Binding (human CD33 P46F): 80.9 % WT binding; Mean % WT Binding (human CD33 F44I): 0.4 % WT binding; Mean % WT Binding (human CD33 F43L): 45.8 % WT binding; Mean % WT Binding (human CD33 N20E): 120 % WT binding; Mean % WT Binding (human CD33 F44H): 0.4 % WT binding; Mean % WT Binding (human CD33 N20L): 95.8 % WT binding; Mean % WT Binding (human CD33 F21I): 86.8 % WT binding; Mean % WT Binding (human CD33 F44T): 0.8 % WT binding; Mean % WT Binding (human CD33 I47V): 97.2 % WT binding; Mean % WT Binding (human CD33 D18R): 96.5 % WT binding; Mean % WT Binding (human CD33 P19K): 115 % WT binding; Mean % WT Binding (human CD33 F21H): 117 % WT binding; Mean % WT Binding (human CD33 Q24S): 108 % WT binding; Mean % WT Binding (human CD33 W22N): 107 % WT binding |
